Kd data for ten substances are collected here from patent publication US20150337053A1.

pKd: −log10 of the molar value.

Usually pKd stands for the negative decadic logarithm of the Kd, by convention in mol/L.

Assay [1] addresses human FcγRI (human) (UniProt P12314). In words: SPR (Biacore 3000), His-tagged receptor captured on anti-His IgG, antibody injected; 1:1 kinetic fit. In general terms: In SPR one partner is held on a chip, and binding of the other changes the refractive index at the surface.
The target of assay [2] is human FcγRIIa (Example 1, allotype not stated) (human) (UniProt P12318). Briefly: SPR (Biacore 3000), His-tagged receptor captured on anti-His IgG, antibody injected; steady state fit.
Chain of human FcγRIIa (Example 1, allotype not stated) (human) (P12318 36-218 limits assumed): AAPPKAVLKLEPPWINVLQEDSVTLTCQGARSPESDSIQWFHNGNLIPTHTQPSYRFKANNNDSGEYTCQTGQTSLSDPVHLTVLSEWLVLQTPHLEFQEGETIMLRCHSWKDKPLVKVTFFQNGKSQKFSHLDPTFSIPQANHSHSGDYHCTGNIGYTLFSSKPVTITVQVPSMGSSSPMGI
Assay [3] addresses human FcγRI (human) (UniProt P12314). The assay is described as above.
In assay [4] the target is human FcγRIIIa (Example 1) (human) (UniProt P08637). Described as above.
Chain of human FcγRIIIa (Example 1) (human) (P08637 17-208 F176V limits assumed): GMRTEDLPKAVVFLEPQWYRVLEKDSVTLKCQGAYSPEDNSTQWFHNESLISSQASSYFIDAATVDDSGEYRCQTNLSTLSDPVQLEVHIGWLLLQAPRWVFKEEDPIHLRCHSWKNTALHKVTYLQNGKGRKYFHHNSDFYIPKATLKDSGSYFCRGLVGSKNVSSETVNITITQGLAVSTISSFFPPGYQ
Assay [5] has the same target. Briefly: SPR (Biacore 3000), His-tagged receptor captured on anti-His IgG, antibody injected; 1:1 kinetic fit.

Chain of human FcγRI (human) (P12314 16-288 limits assumed): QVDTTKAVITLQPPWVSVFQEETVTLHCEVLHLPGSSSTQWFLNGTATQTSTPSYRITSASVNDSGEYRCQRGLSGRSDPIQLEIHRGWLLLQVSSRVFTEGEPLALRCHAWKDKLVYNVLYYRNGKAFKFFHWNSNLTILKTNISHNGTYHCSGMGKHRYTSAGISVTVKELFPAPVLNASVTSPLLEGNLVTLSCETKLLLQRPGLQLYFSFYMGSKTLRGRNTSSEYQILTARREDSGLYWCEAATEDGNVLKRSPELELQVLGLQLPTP

Take “huIgG1 (wild type human IgG1 isotype, anti-Her2/neu construct) (antibody)”: the figures for the pKd in assay [1] and in assay [2] were 7.89 and 6.15, respectively.

Turning to “huIgG1-Ag (aglycosylated IgG1, N297A) (antibody)”, the pKd in assay [3] is 5.43; in assay [4] it was below 4.02; in assay [2] it was below 3.77.

On to “huIgG2 (wild type human IgG2 isotype, anti-Her2/neu construct) (antibody)”, for which the figures for the negative-log Kd (pKd) in assay [3], in assay [4] and in assay [2] were 3.92, 4.39 and 6.00, respectively.

In the case of “huIgG2c4a (H268A, V309L, A330S, P331S) (antibody)”, the figures for the negative logarithm of the Kd (pKd) in assay [3], in assay [4] and in assay [2] were 3.80, 4.07 and 5.66, respectively.

Regarding “huIgG2c4b (V234A, G237A, H268Q, V309L, A330S, P331S) (antibody)”, the pKd was 4.42 in assay [3], below 4.02 in assay [4] and 3.77 in assay [2].

“huIgG2c4c (V234A, G237A, H268A, V309L, A330S, P331S) (antibody)”: the pKd is 7.36 in assay [1], 6.19 in assay [5] and 4.72 in assay [2].

On to “huIgG2c4d (V234A, G237A, P238S, H268A, V309L, A330S, P331S) (antibody)”, for which the negative-log Kd (pKd) is below 3.68 in assay [3], below 4.02 in assay [4] and below 3.77 in assay [2].

Turning to “huIgG2c4e (P233S, V234A, G237A, P238S, H268A, V309L, A330S, P331S) (antibody)”, the results for the negative logarithm of the Kd (pKd) in assay [3], in assay [4] and in assay [2] were below 3.68, below 4.02 and below 3.77, respectively.

“huIgG2m4 (H268Q, V309L, A330S, P331S) (antibody)”: the negative logarithm of the Kd (pKd) was 3.68 in assay [3], 4.02 in assay [4] and 5.57 in assay [2].

“huIgG4 Ala-Ala, Ser-Pro (S228P, F234A, L235A) (antibody)”: the figures for the pKd in assay [3], in assay [4] and in assay [2] were 4.82, 4.26 and 3.82, respectively.
